In US20090252717:

Assays:
[1] = biological target: KHC-584 (first 584 amino acids of rat KHC, expressed in E. coli) (UniProt Q2PQA9)
[2] = biological target: immunoprecipitated endogenous mouse brain kinesin-1 (UniProt Q61768)
immunoprecipitated endogenous mouse brain kinesin-1, sequence (Q61768 whole entry, looked up): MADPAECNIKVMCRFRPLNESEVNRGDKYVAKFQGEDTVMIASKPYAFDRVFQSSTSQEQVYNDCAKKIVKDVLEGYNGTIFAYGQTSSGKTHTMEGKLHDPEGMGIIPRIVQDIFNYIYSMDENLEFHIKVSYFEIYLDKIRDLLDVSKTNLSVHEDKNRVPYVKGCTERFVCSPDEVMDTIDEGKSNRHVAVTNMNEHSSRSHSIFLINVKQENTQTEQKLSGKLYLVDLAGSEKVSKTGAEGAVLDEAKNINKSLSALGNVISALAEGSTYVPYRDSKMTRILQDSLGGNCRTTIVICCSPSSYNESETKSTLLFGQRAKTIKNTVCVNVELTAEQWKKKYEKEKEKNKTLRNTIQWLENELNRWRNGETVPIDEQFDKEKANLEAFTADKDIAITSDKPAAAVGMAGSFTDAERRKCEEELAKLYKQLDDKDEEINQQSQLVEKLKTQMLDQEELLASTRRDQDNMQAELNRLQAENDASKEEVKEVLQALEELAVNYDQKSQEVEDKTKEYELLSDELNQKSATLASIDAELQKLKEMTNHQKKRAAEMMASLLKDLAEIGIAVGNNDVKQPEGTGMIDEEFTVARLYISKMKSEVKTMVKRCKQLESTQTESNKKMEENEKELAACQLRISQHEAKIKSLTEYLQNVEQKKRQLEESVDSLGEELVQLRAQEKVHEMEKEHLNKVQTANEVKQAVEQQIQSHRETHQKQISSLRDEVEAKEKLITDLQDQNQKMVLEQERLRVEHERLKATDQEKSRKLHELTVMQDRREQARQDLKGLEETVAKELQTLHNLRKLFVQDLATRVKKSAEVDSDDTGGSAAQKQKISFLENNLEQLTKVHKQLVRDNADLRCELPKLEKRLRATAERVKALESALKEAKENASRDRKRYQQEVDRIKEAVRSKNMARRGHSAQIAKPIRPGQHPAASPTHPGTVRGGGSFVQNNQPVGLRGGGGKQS

recombinant 6-His-tagged JNK3 kinase (JNK3/SAPK1b, Upstate Biotechnology), sequence (P53779 whole entry): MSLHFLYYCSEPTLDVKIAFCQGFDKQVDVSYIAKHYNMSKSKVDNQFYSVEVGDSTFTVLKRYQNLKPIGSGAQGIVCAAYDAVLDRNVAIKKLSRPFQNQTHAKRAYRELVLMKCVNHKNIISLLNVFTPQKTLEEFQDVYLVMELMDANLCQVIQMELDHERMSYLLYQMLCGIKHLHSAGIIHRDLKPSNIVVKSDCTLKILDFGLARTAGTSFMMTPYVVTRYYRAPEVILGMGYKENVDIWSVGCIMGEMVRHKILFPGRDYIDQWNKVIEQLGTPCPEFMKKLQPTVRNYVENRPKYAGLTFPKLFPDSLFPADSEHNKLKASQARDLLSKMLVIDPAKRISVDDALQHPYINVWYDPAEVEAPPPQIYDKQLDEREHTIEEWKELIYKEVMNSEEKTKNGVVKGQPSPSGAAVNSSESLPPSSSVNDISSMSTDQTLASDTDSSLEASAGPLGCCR
KHC-584 (first 584 amino acids of rat KHC, expressed in E. coli), sequence (Q2PQA9 1-584): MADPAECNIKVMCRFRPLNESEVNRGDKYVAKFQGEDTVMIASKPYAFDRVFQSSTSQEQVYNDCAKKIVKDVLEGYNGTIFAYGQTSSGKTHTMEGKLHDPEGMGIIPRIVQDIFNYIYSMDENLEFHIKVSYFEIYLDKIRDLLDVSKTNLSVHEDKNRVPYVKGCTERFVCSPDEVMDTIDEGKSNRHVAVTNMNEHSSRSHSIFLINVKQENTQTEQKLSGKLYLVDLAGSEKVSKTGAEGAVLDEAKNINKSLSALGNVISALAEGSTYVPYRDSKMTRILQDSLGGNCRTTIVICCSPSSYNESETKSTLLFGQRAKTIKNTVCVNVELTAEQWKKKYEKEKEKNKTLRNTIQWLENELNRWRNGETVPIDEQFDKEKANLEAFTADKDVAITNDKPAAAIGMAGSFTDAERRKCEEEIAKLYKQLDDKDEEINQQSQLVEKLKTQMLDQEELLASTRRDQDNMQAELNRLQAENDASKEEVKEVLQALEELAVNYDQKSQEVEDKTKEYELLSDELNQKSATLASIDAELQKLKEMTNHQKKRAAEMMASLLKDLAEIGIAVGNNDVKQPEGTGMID

## recombinant 6-His-tagged JNK3 kinase (JNK3/SAPK1b, Upstate Biotechnology)
[1]
  in vitro kinase assay (32P incorporation): both recombinant KHC and immunoprecipitated endogenous mouse brain kinesin-1 KHC could be phosphorylated by recombinant JNK
  in vitro phosphorylation, mass spectrometry of tryptic peptides: A single tryptic peptide was identified with evidence of phosphorylation
[2]
  in vitro kinase assay (32P incorporation): both recombinant KHC and immunoprecipitated endogenous mouse brain kinesin-1 KHC could be phosphorylated by recombinant JNK
  in vitro phosphorylation, autoradiogram: Autoradiograms showed 32P incorporation in KHCs, but not KLCs
